Assay results: patent US12006361 (SONNET BIOTHERAPEUTICS, dated 2024)

How the values were obtained:
Assay in all cases: biopanning and SPR screening
human TGFβ2 = target: T1, human TGFβ2 (human, UniProt P61812 303-414)
T1 construct: also called hTGFβ2
T1 sequence (looked up): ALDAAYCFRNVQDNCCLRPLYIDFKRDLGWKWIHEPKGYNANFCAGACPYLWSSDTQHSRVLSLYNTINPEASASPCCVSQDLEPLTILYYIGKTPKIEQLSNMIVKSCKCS

mouse TGFβ1 = target: T2, mouse TGFβ1 (mouse, UniProt P04202 279-390)
T2 construct: also called mTGFβ1; mTGFβ-1

human TGFβ1 = target: T3, human TGFβ1 (human, UniProt P01137 279-390)
T3 construct: also called hTGFβ1; hTGFβ-1

human TGFβ3 = target: T4, human TGFβ3 (human, UniProt P10600 301-412)
T4 construct: also called hTGFβ3
T4 sequence (looked up): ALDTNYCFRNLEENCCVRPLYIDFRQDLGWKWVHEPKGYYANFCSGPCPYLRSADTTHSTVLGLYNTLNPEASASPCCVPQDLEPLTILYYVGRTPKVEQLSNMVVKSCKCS

Measured: binding result

T2 sequence (P04202 279-390 limits assumed): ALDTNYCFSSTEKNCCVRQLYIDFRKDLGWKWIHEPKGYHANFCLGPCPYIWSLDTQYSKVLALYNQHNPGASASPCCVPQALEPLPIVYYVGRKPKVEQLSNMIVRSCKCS
T3 sequence (P01137 279-390 limits assumed): as the sequence (P04202 279-390 limits assumed) above, with S75A counted along it

B1: 4H7 (scFv)
scFv: QVQLVESGGGLVKPGRSLRLSCAASGFTFSSYAMHWVRQAPGKGLEWVAVISYDGSNKYYADSVKGRFTISRDNSKNTLYLQMNSLRAEDTAVYYCAKEMRYCSGGSCYPYAYYMDVWGQGTTVTVSSASTGGGGSGGGGSGGGGSVHSSSELTQDPAVSVALGQTVRITCQGDSLRSYYASWYQQKPGQAPVLVIYGKNNRPSGIPDRFSGSSSGNTASLTITGAQAEDEADYYCNSRDSSGNLVVFGGGTKLTVLGLGG
notes: also called anti-TGFβ-1 scFv 4H7
binds: all assays above
